Test results published in the supplement of paper PMC10567573.

B1: ZNF207 (parent)
chain: FQPQPVQPQQGYIPPMAQPGLPPV
B2: PTPN9 (parent)
chain: ILFSLPPALDWDSVHVPGPHAMTI

Variants of: B1
Assay: protein stability index of a GFP-peptide fusion (GPS, HEK-293T) (PSI 1-6); higher = more stable
Settings: c terminus: a fixed tail appended
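Also: lentivirally expressed fusions sorted by FACS into six bins by GFP to DsRed ratio, PSI derived from sequencing read proportions per bin multiplied by bin number.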

Row | Variant | protein stability index
1 | Q10C | 2.5
2 | Q10V | 2.04
3 | Q10E | 3.1
4 | Q10T | 3.34
5 | Q10G | 3.39
6 | Q10D | 3.54
7 | G11R | 3.21
8 | G11N | 2.93
9 | G11P | 2.74
10 | G11W | 2.19
11 | V24D | 3.9
12 | V24Q | 3.33
13 | V24M | 2.8
14 | V24G | 3.1
15 | V24W | 1.8
16 | V24C | 2.95
17 | P15C | 2.45
18 | P15R | 2.97
19 | P15S | 2.87
20 | P15T | 3.14
21 | P15N | 3.45
22 | P15F | 2.3
23 | P15M | 2.62
24 | Q2M | 3.13
25 | Q2K | 3.54
26 | Q2V | 2.51

Row | Variant | protein stability index
27 | Q2S | 3.16
28 | P3W | 2.26
29 | P3S | 3.73
30 | P3N | 3.55
31 | M16Y | 2.82
32 | M16C | 3.08
33 | M16I | 3.3
34 | M16F | 2.43
35 | M16G | 3.49
36 | M16D | 3.7
37 | Q7D | 3.26
38 | Q7G | 2.78
39 | Q7H | 2.82
40 | Q7R | 2.83
41 | Q7M | 3.21
42 | Q7C | 2.88
43 | Q7Y | 2.5
44 | Q7K | 3.04
45 | V6E | 3.61
46 | V6W | 2.62
47 | V6I | 2.96
48 | V6L | 3.06
49 | Y12G | 3.53
50 | Y12H | 3.54
51 | Y12E | 3.77
52 | Y12C | 3.55

Row | Variant | protein stability index
53 | Y12R | 3.66
54 | Y12S | 3.81
55 | Y12V | 3.86
56 | Y12F | 2.81
57 | Y12T | 3.69
58 | Y12L | 3.81
59 | Q18N | 3.11
60 | Q18R | 3.37
61 | P5E | 3.62
62 | P5V | 2.57
63 | P5N | 2.8
64 | P5S | 3.18
65 | P22E | 3.08
66 | P22K | 3.4
67 | P22N | 2.74
68 | P22T | 2.7
69 | P22W | 1.85
70 | P14W | 1.98
71 | P14R | 2.81
72 | P14L | 2.52
73 | P14C | 2.61
74 | P14K | 2.83
75 | P14Q | 2.74
76 | Q4E | 3.58
77 | Q4F | 2.42
78 | Q4Y | 1.83

Row | Variant | protein stability index
79 | Q4N | 3.43
80 | Q4D | 3.01
81 | A17V | 2.96
82 | A17Y | 2.25
83 | A17Q | 3.39
84 | A17H | 3.12
85 | A17S | 3.86
86 | A17I | 3.17
87 | A17D | 3.35
88 | F1M | 3.9
89 | F1C | 3.07
90 | F1I | 3.9
91 | F1Y | 3.61
92 | F1E | 4.36
93 | F1S | 4.38
94 | F1W | 3.26
95 | P19S | 3.19
96 | L21M | 3.68
97 | L21E | 4.13
98 | L21G | 3.24
99 | L21D | 4.12
100 | P8E | 3.22
101 | P8C | 2.54
102 | P8T | 2.91
103 | P8L | 3.19
104 | P8M | 2.47

Row | Variant | protein stability index
105 | P8H | 2.89
106 | P8Y | 2.53
107 | P8G | 2.96
108 | Q9K | 2.91
109 | Q9L | 2.54
110 | Q9R | 3.26
111 | Q9M | 2.88
112 | Q9G | 2.74
113 | Q9A | 3.35
114 | Q9Y | 2.32
115 | Q9N | 2.72
116 | I13N | 3.17
117 | I13F | 3.4
118 | I13H | 3.54
119 | I13M | 2.99
120 | I13V | 3.44
121 | I13Y | 2.88
122 | P23E | 3.07
123 | P23W | 1.7
124 | P23S | 3.19
125 | P23N | 2.69
126 | P23T | 2.89
127 | G20D | 2.89
128 | G20R | 3.33
129 | G20L | 3.15

Variants of: B2
Assay: as above
Settings: c terminus: a fixed tail appended

Row | Variant | protein stability index
130 | H15R | 1.44
131 | H15C | 2.36
132 | H15L | 4.13
133 | H15V | 3.57
134 | H15E | 2
135 | H15K | 2.48
136 | H15F | 2.99
137 | H15G | 2.83
138 | H15P | 3.2
139 | H15I | 2.88
140 | H15Y | 3.15
141 | H15A | 3.31
142 | H15T | 2.94
143 | H15Q | 1.81
144 | H15S | 1.85
145 | H15D | 2.08
146 | G18H | 2.69
147 | G18D | 1.85
148 | G18R | 2.19
149 | G18K | 1.61
150 | G18M | 2.48
151 | G18V | 2.36
152 | G18E | 2.12
153 | G18A | 3.84
154 | G18W | 3.41
155 | G18I | 3.29

Row | Variant | protein stability index
156 | G18N | 2.76
157 | G18S | 2.4
158 | G18Q | 3.62
159 | G18C | 1.85
160 | G18L | 4.77
161 | A21S | 3.61
162 | A21N | 1.75
163 | A21L | 2.86
164 | A21C | 3.09
165 | A21I | 3.19
166 | A21V | 4.21
167 | A21Y | 3.24
168 | A21G | 2.96
169 | A21W | 1.23
170 | A21E | 2.64
171 | A21D | 2.71
172 | A21K | 3.13
173 | A21Q | 2.63
174 | A21R | 1.86
175 | A21H | 2.88
176 | A21P | 2.84
177 | A21M | 2.59
178 | A21T | 2.35
179 | V14G | 2.1
180 | V14M | 3.43
181 | V14H | 2.43

Row | Variant | protein stability index
182 | V14D | 1.5
183 | V14E | 1.95
184 | V14S | 2.17
185 | V14F | 4.29
186 | V14K | 1.66
187 | V14R | 2.75
188 | V14Y | 2.26
189 | V14L | 3.32
190 | V14N | 2.41
191 | V14C | 2.02
192 | V14I | 2.09
193 | V14Q | 2.57
194 | V14T | 2.38
195 | P19S | 2.48
196 | P19W | 2.19
197 | P19L | 2.44
198 | P19F | 3.89
199 | P19V | 3.51
200 | P19M | 2.77
201 | P19C | 2.95
202 | P19R | 2.65
203 | P19D | 2.1
204 | P19G | 2.97
205 | P19Y | 3.1
206 | P19H | 2.46
207 | P19T | 1.89

Row | Variant | protein stability index
208 | P19I | 2.37
209 | P19Q | 2.55
210 | P19A | 2.77
211 | P19K | 2.02
212 | P19E | 2.35
213 | P19N | 2.89
214 | V16L | 2.68
215 | V16K | 2.54
216 | V16S | 3.71
217 | V16G | 1.99
218 | V16D | 2.27
219 | V16W | 2.95
220 | V16I | 3.19
221 | V16N | 1.74
222 | V16F | 2.42
223 | V16Q | 1.81
224 | V16H | 2.2
225 | V16A | 1.93
226 | V16E | 1.38
227 | V16M | 3.21
228 | V16T | 3.33
229 | V16C | 3.24
230 | V16R | 2.68
231 | P17Q | 2.94
232 | P17I | 2.67
233 | P17R | 2.87

Row | Variant | protein stability index
234 | P17C | 1.49
235 | P17T | 2.02
236 | P17G | 1.94
237 | P17W | 4.48
238 | P17K | 2.49
239 | P17L | 2.79
240 | P17N | 2.71
241 | P17H | 1.42
242 | P17D | 2.21
243 | P17S | 2.82
244 | P17E | 2.47
245 | P17F | 3.17
246 | P17A | 2.78
247 | P17M | 3.11
248 | D12W | 2.79
249 | T23Y | 2.69
250 | T23R | 3.03
251 | T23D | 2.6
252 | T23E | 2.33
253 | T23P | 1.2
254 | T23K | 2.87
255 | T23A | 1.49
256 | T23L | 1.76
257 | T23V | 4.05
258 | T23Q | 2.73
259 | T23F | 2.25

Row | Variant | protein stability index
260 | T23C | 3.21
261 | T23H | 1.88
262 | T23M | 4.43
263 | T23N | 3.27
264 | T23I | 2.96
265 | T23S | 2.4
266 | T23W | 2.7
267 | T23G | 3.89
268 | H20F | 3.16
269 | H20T | 2.16
270 | H20A | 2.01
271 | H20Q | 2.31
272 | H20G | 2.69
273 | H20L | 2.79
274 | H20P | 1.82
275 | H20E | 1.59
276 | H20M | 2.88
277 | H20D | 2.29
278 | H20I | 2.93
279 | H20K | 2.76
280 | H20R | 2.12
281 | H20S | 2.48
282 | H20C | 2.58
283 | H20Y | 3.11
284 | H20N | 2.59
285 | I24D | 1.83

Row | Variant | protein stability index
286 | I24G | 2.29
287 | I24S | 1.57
288 | I24T | 1.97
289 | I24A | 1.55
290 | I24P | 1.85
291 | I24Q | 2.71
292 | I24F | 3.71
293 | I24Y | 1.73
294 | I24R | 1.71
295 | I24E | 1.69
296 | I24W | 3.21
297 | I24M | 2.69
298 | I24L | 1.99
299 | I24C | 2.43
300 | I24N | 1.71
301 | I24H | 1.63
302 | I24K | 2.06
303 | I24V | 2.31
304 | S13L | 2.65
305 | S13P | 2.4
306 | S13G | 2.02
307 | S13K | 2.36
308 | S13Y | 3.24
309 | S13N | 1.81
310 | S13Q | 2.06
311 | S13M | 2.1

Row | Variant | protein stability index
312 | S13I | 3.25
313 | S13R | 3.77
314 | S13T | 2.42
315 | S13V | 2.03
316 | S13D | 2.79
317 | S13A | 1.88
318 | M22V | 2.64
319 | M22P | 1.77
320 | M22A | 2.35
321 | M22E | 2.55
322 | M22H | 1.24
323 | M22T | 1.75
324 | M22R | 1.86
325 | M22D | 1.91
326 | M22Q | 2.04
327 | M22S | 1.82
328 | M22F | 1.73
329 | M22K | 1.39
330 | M22N | 1.39
331 | M22L | 2.77
332 | M22W | 3.35
333 | M22I | 2.93
334 | M22G | 1.67
